Two substances from publication doi:10.1101/2023.03.15.532789 can be followed below.

For test [1], the target named is hDLG1 PDZ1 domain (human) (UniProt Q12959). As to the kind of experiment: NMR titration.
The target is the same in test [2]. As to the kind of experiment: ITC.
In test [3] the target is hDLG1 PDZ2 domain (human) (UniProt Q12959). Put plainly: ITC.
Chain of hDLG1 PDZ2 domain (human) (Q12959 whole entry, the tested form may be a part): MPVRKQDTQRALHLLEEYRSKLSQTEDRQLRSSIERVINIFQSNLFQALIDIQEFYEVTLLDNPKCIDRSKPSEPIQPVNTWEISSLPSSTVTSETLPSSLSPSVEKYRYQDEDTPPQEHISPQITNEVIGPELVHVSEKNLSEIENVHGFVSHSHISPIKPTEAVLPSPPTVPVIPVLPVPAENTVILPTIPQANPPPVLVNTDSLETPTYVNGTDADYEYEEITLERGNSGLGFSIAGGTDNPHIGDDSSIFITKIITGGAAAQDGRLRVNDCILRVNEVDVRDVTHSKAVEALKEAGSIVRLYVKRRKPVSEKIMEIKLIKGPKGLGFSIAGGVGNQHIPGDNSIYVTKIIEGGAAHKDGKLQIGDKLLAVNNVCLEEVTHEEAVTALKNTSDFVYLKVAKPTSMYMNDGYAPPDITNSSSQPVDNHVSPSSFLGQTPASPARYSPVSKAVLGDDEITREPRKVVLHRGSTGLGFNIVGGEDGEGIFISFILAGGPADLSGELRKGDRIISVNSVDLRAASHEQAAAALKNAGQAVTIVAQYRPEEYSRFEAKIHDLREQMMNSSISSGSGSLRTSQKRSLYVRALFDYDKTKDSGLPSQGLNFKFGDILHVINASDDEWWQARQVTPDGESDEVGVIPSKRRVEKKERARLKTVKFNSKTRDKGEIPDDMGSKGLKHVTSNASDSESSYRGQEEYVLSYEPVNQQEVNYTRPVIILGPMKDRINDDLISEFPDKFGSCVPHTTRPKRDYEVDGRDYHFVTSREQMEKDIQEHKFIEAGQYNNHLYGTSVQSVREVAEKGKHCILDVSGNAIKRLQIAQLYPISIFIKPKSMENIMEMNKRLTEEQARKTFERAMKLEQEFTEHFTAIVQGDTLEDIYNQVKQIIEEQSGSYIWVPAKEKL

Chain of hDLG1 PDZ1 domain (human) (Q12959 whole entry, the tested form may be a part): as above

“C-terminally amidated Tax-1 peptide (Tax-1mod)” displayed a dissociation constant Kd in test [1] of 951000 nM.

For the substance Tax-1 10-mer peptide (H-…-OH), in test [2], the Kd is 2700 nM, the dH was -8 kcal/mol and the stoichiometry N is 1.03. Further, in test [3], the Kd stood at 900 nM, the dH is -10.4 kcal/mol and the stoichiometry N was 0.99.
